Laboratory results taken from article PMC7099567, “Enzymatic Synthesis of 2-Keto-3-Deoxy-6-Phosphogluconate by the 6-Phosphogluconate-Dehydratase From Caulobacter crescentus” (Frontiers in Bioengineering and Biotechnology, 2020).

Experiments:
[1] = target: the molecule itself; test: SEC; HiLoad 26/60 Superdex 200 prep grade; buffer C (50 mM HEPES/KOH, 300 mM NaCl, 5 mM MnCl, pH 8); isocratic flow 2 ml min^-1; native mass compared with the subunit mass from SDS-PAGE
purified protein = substrate: O=C(O)[C@H](O)[C@@H](O)[C@H](O)[C@H](O)COP(=O)(O)O; test: purified protein; assay type: biochemical, Caulobacter vibrioides; settings: 100 mM HEPES pH 8.0, 37 C, 0.2 mM NADH, enzyme purified and stored with 5 mM MnCl2

B1: 6-phosphogluconate dehydratase/Entner-Doudoroff dehydratase (EDD) from Caulobacter crescentus (enzyme, UniProt A0A0H3CB86 1-602, looked up)
chain: MSLNPVIADVTARIVARSKDSRAAYLANMDRAIENQPGRAKLSCANWAHAFAASPGVDKLRALDPNAPNIGIVSAYNDMLSAHQPLEAYPALIKDAARDVGATAQFAGGVPAMCDGVTQGRPGMELSLFSRDVIAMATAVALTHDAFDSALYLGVCDKIVPGLVIGALTFSHLPALFVPAGPMTSGLPNSEKARIRALYAEGKVGREELLAAESASYHGPGTCTFYGTANTNQMLMELMGFHLPGSAFVHPNTPLREALVKESARRVAAVTNKGNEFIPVGRMIDEKSFVNGVVGLMATGGSTNLALHIIAMAAAAGVQLTLEDLDDISKATPLLARVYPNGSADVNHFQAAGGMAFVIRELLKAGLVHEDVQTIAGAGLSLYAKEPVLEDGMLTWRDGAHESLDPAIVRPVSDPFSKEGGLRLMAGNLGRGVMKISAVKPEHHVIEAPCAVFQEQEDFIAAFKRGELDRDVVVVVRFQGPSANGMPELHNLSPSISVLLDRGHKVALVTDGRMSGASGKTPAAIHVTPEAAKGGPLAYVQDGDVIRVNAETGELKIMVDEATLLARTPANVPASKPGFGRELFGWMRSGVGAADAGASVFA
notes: Homodimer by size exclusion chromatography (130 kDa native, 63.2 kDa by SDS-PAGE); also called CcEDD; 6PG dehydratase; source: E. coli BL21 (DE3), pET15b, purified (Ni-TED)
stoichiometry N [1]: 2 | Km (purified protein): 300 µM
